T1: PTCH1 (Patched 1) (Mus musculus, UniProt Q61115)
T1 construct: full-length PTCH1-WT with C-terminal 1D4 tag
T1 sequence (Q61115 1-1434): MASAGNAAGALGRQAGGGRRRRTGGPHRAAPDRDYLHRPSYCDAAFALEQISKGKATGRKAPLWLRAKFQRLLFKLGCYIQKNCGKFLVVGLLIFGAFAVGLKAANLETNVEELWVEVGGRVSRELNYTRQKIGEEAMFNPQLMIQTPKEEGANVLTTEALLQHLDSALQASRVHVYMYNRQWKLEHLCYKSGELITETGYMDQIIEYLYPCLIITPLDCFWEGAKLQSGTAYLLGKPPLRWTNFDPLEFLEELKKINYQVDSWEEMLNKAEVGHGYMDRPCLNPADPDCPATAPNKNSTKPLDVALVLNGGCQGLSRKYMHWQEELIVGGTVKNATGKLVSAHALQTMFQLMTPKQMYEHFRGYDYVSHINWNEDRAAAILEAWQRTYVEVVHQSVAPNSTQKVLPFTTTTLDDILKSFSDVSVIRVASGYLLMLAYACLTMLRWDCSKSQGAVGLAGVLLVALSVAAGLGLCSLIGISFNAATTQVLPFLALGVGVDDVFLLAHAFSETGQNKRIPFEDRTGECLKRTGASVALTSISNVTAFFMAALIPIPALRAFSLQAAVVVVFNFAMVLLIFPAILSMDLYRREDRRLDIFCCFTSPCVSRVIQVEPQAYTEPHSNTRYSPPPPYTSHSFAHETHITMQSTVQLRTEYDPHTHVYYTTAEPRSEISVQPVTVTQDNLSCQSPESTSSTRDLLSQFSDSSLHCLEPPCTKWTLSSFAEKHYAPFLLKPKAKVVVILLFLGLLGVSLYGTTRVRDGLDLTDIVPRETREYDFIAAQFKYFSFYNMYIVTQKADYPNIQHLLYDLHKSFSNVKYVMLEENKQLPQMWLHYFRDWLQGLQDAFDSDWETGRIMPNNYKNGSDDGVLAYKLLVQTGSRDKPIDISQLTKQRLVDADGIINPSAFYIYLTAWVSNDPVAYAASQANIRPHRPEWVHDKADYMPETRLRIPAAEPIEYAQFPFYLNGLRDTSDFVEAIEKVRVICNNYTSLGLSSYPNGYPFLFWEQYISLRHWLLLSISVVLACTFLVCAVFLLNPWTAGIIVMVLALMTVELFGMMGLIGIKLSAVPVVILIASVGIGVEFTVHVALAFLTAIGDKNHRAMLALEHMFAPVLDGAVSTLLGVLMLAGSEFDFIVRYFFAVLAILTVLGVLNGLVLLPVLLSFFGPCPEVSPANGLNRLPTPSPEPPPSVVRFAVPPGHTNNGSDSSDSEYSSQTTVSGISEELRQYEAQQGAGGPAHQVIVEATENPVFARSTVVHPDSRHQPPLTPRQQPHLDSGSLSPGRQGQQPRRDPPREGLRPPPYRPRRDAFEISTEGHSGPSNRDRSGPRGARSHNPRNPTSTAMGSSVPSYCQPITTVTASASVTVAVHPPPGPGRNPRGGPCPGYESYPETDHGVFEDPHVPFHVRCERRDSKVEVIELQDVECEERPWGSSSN

B1: Nb8-mVenus (VHH)
VHH: QVQLQESGGGLVQAGGSLRLSCAASGYIFSSYAMGWYRQAPGKEREFVATIGWGTITYYADSVKGRFTISRDNAKNTVYLQMNSLKPEDTAVYYCAAQDLLYYSFPGDHAYWGQGTQVTVSS
notes: Fused at its C terminus to a HRV3C-mVenus-12His fragment (HRV3C protease site between Nb8 and mVenus); the only Nb8 construct described is this one; also called active-conformation specific nanobody Nb8; active-state selective Nb8; not shown: mVenus, C-terminal, kept; 12His, C-terminal, kept

Experiments:
PTCH1 (Patched 1) = molecular target: T1, PTCH1 (Patched 1); assay: UV photocrosslinking in intact cells, immunoprecipitation and click-biotin detection; format: cell-based
Source text: UV photocrosslinking in intact cells, immunoprecipitation and click-biotin detection on PTCH1 (Patched 1) | PTCH1 itself could be photolabeled by 6-azi-20(S)-yne. Labeling of PTCH1 by 6-azi-20(S)-yne was diminished by SHH

hSMOΔC = molecular target: T2, hSMOΔC (Homo sapiens, UniProt Q99835); assay: SEC; fluorescence-detection size exclusion chromatography (FSEC); purified hSMOΔC variants and Nb8-mVenus incubated 1 hour in 200 μl, no added ligands; Superose 6 Increase 3.2/300 in 10 mM Hepes pH 7.5, 150 mM NaCl, 0.02% GDN, 0.002% CHS; mVenus fluorescence followed; conditions: both partners purified
T2 construct: Smoothened (SMO), human, UniProt Q99835, amino acid residues 32 to 555, lacks the disordered C-terminal cytoplasmic tail; Purified in detergent (GDN/CHS); Cloned into pHR-CMV-TetO2 (Addgene plasmid no. 113883) with a 3C-protease cleavable mVenus-1D4 tag; called nonfluorescent in the FSEC assay; also called human Smoothened lacking its C-terminal cytoplasmic tail; hSMO∆C; not shown: HA, …

hSMOΔC-ΔCRD = molecular target: T3, hSMOΔC-ΔCRD (Homo sapiens, UniProt Q99835); assay: as above; conditions: both partners purified
T3 construct: Smoothened (SMO), human, UniProt Q99835, amino acid residues 190 to 555, lacks the cysteine-rich domain and the C-terminal cytoplasmic tail; Purified in detergent (GDN/CHS); also called hSMOΔC lacking the CRD; not shown: mVenus, C-terminal, cleaved; 1D4, C-terminal, cleaved
T3 sequence (Q99835 190-555, stated change not applied): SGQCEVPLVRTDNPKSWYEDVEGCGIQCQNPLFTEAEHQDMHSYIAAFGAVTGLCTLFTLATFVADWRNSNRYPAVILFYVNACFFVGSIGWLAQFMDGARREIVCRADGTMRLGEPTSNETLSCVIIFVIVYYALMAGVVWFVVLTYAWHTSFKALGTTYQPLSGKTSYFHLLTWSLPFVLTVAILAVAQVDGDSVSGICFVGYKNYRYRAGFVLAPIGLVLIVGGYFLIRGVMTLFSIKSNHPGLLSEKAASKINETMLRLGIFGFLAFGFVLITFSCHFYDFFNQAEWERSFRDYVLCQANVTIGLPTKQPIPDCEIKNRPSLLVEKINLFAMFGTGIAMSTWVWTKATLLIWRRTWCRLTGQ

T2 sequence (Q99835 32-555, stated change not applied): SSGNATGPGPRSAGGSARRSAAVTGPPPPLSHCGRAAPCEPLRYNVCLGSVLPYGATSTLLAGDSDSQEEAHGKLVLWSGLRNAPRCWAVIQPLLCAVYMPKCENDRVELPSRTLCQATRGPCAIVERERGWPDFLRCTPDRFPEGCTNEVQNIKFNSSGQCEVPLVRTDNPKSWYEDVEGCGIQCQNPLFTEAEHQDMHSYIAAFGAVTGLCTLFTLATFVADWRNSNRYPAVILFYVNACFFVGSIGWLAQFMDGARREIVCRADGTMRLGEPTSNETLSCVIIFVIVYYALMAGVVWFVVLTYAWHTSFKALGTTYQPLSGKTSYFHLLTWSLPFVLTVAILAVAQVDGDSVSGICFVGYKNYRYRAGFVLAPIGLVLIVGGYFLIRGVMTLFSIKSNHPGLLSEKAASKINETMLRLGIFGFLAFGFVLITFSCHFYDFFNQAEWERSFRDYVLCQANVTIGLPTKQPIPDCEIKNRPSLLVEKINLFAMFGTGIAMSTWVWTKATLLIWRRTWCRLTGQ

Molecule | UV photocrosslinking in intact cells, immunoprecipitation and click-biotin detec (PTCH1 (Patched 1)) | binding result (hSMOΔC) | binding result (hSMOΔC-ΔCRD)
C#CCC[C@](C)(O)[C@H]1CC[C@H]2[C@@H]3CC4(N=N4)[C@H]4C[C@@H](O)CC[C@]4(C)[C@H]3CC[C@@]21C [6-azi-20(S)-yne] | PTCH1 itself could be photolabeled by 6-azi-20(S)-yne. Labeling of PTCH1 by 6-azi-20(S)-yne was diminished by SHH |  | 
B1 |  | binds | binds

— publication PMC9166294, “Patched 1 regulates Smoothened by controlling sterol binding to its extracellular cysteine-rich domain” (Science Advances, 2022)
